Entries after “also recorded” stand apart in the source; their conditions may differ.
Test: Safety and tolerability (TEAEs, NCI CTCAE v4.0, DLT)
Assay type: in vivo, human (Japanese patients)
Procedure: Safety was evaluated based on adverse events, laboratory tests, vital signs, physical examination, arterial oxygen saturation (SpO2), 12-lead electrocardiogram (ECG), body weight, and Eastern Cooperative Oncology Group (ECOG) performance status. Toxicity was evaluated according to the NCI CTCAE criteria version 4.0 14). Blood count and liver and kidney biochemistry examinations were performed just prior to the treatment and 5 days, 2, 4, 6, and 8 weeks after the first administration (Course 1). In addition, the examinations were performed the second, third, fourth administration (Courses 2, 3, 4), and as per routine clinical follow-up thereafter.
Course 2 treatment and subsequent courses were initiated for subjects who completed the dose-limiting toxicity (DLT) observation period (up to Day 56 of Course 1) without experiencing DLT and who met the eligibility criteria. […] The study treatment was considered tolerable when the number of subjects who experienced DLT was zero or one per six subjects. The appropriateness of DLT, as assessed by the investigator or sub-investigator, was confirmed by the clinical trial medical expert. All adverse events and serious adverse events, reported spontaneously or non-spontaneously, were collected during the study.

[1] = TEAE by severity, n = 6, CTCAE v4.0, 4 × 7.4 GBq + amino acid solution + octreotide LAR

C[C@@H](O)[C@H](NC(=O)[C@@H]1CSSC[C@H](NC(=O)[C@@H](Cc2ccccc2)NC(=O)CN2CCN(CC(=O)O)CCN(CC(=O)O)CCN(CC(=O)O)CC2)C(=O)N[C@@H](Cc2ccc(O)cc2)C(=O)N[C@H](Cc2c[nH]c3ccccc23)C(=O)N[C@@H](CCCCN)C(=O)N[C@@H]([C@@H](C)O)C(=O)N1)C(=O)O [177Lu-DOTATATE, ^177Lu-DOTA^0-Tyr^3-octreotate, metal not drawn]
Dose-limiting toxicities (DLT) (DLT observation period up to Day 56 of Course 1, n = 6): no dose-limiting toxicities; also recorded: no DLT
ALT increased, Grade 1 [1]: 1 (16.7) n (%)
ALT increased, Grade 2 [1]: 0 n (%)
ALT increased, Grade 3 [1]: 0 n (%)
ALT increased, Grade 4 [1]: 0 n (%)
AST increased, Grade 1 [1]: 1 (16.7) n (%)
AST increased, Grade 2 [1]: 0 n (%)
AST increased, Grade 3 [1]: 0 n (%)
AST increased, Grade 4 [1]: 0 n (%)
Abdominal distension, Grade 1 [1]: 3 (50.0) n (%)
Abdominal distension, Grade 2 [1]: 0 n (%)
Abdominal distension, Grade 3 [1]: 0 n (%)
Abdominal distension, Grade 4 [1]: 0 n (%)
Abdominal pain, Grade 1 [1]: 1 (16.7) n (%)
Abdominal pain, Grade 2 [1]: 0 n (%)
Abdominal pain, Grade 3 [1]: 0 n (%)
Abdominal pain, Grade 4 [1]: 0 n (%)
All treatment emergent adverse events (TEAEs), Grade 1 [1]: 0 n (%)
All treatment emergent adverse events (TEAEs), Grade 2 [1]: 4 (66.7) n (%)
All treatment emergent adverse events (TEAEs), Grade 3 [1]: 2 (33.3) n (%)
All treatment emergent adverse events (TEAEs), Grade 4 [1]: 0 n (%)
Alopecia, Grade 1 [1]: 3 (50.0) n (%)
Alopecia, Grade 2 [1]: 0 n (%)
Alopecia, Grade 3 [1]: 0 n (%)
Alopecia, Grade 4 [1]: 0 n (%)
Blood and lymphatic system disorders (SOC), Grade 1 [1]: 0 n (%)
Blood and lymphatic system disorders (SOC), Grade 2 [1]: 1 (16.7) n (%)
Blood and lymphatic system disorders (SOC), Grade 3 [1]: 2 (33.3) n (%)
Blood and lymphatic system disorders (SOC), Grade 4 [1]: 0 n (%)
CPK increased, Grade 1 [1]: 0 n (%)
CPK increased, Grade 2 [1]: 1 (16.7) n (%)
CPK increased, Grade 3 [1]: 0 n (%)
CPK increased, Grade 4 [1]: 0 n (%)
Chest discomfort, Grade 1 [1]: 1 (16.7) n (%)
Chest discomfort, Grade 2 [1]: 0 n (%)
Chest discomfort, Grade 3 [1]: 0 n (%)
Chest discomfort, Grade 4 [1]: 0 n (%)
Chest pain, Grade 1 [1]: 1 (16.7) n (%)
Chest pain, Grade 2 [1]: 0 n (%)
Chest pain, Grade 3 [1]: 0 n (%)
Chest pain, Grade 4 [1]: 0 n (%)
Cholesterol increased, Grade 1 [1]: 0 n (%)
Cholesterol increased, Grade 2 [1]: 1 (16.7) n (%)
Cholesterol increased, Grade 3 [1]: 0 n (%)
Cholesterol increased, Grade 4 [1]: 0 n (%)
Constipation, Grade 1 [1]: 2 (33.3) n (%)
Constipation, Grade 2 [1]: 0 n (%)
Constipation, Grade 3 [1]: 0 n (%)
Constipation, Grade 4 [1]: 0 n (%)
Creatinine increased, Grade 1 [1]: 1 (16.7) n (%)
Creatinine increased, Grade 2 [1]: 0 n (%)
Creatinine increased, Grade 3 [1]: 0 n (%)
Creatinine increased, Grade 4 [1]: 0 n (%)
Decreased appetite, Grade 1 [1]: 3 (50.0) n (%)
Decreased appetite, Grade 2 [1]: 1 (16.7) n (%)
Decreased appetite, Grade 3 [1]: 0 n (%)
Decreased appetite, Grade 4 [1]: 0 n (%)
Diarrhea, Grade 1 [1]: 3 (50.0) n (%)
Diarrhea, Grade 2 [1]: 2 (33.3) n (%)
Diarrhea, Grade 3 [1]: 0 n (%)
Diarrhea, Grade 4 [1]: 0 n (%)
Dizziness, Grade 1 [1]: 1 (16.7) n (%)
Dizziness, Grade 2 [1]: 0 n (%)
Dizziness, Grade 3 [1]: 0 n (%)
Dizziness, Grade 4 [1]: 0 n (%)
Dysgeusia, Grade 1 [1]: 0 n (%)
Dysgeusia, Grade 2 [1]: 1 (16.7) n (%)
Dysgeusia, Grade 3 [1]: 0 n (%)
Dysgeusia, Grade 4 [1]: 0 n (%)
Dyshidrotic eczema, Grade 1 [1]: 0 n (%)
Dyshidrotic eczema, Grade 2 [1]: 1 (16.7) n (%)
Dyshidrotic eczema, Grade 3 [1]: 0 n (%)
Dyshidrotic eczema, Grade 4 [1]: 0 n (%)
Gastrointestinal disorders (SOC), Grade 1 [1]: 4 (66.7) n (%)
Gastrointestinal disorders (SOC), Grade 2 [1]: 2 (33.3) n (%)
Gastrointestinal disorders (SOC), Grade 3 [1]: 0 n (%)
Gastrointestinal disorders (SOC), Grade 4 [1]: 0 n (%)
General disorders and administration site conditions (SOC), Grade 1 [1]: 5 (83.3) n (%)
General disorders and administration site conditions (SOC), Grade 2 [1]: 0 n (%)
General disorders and administration site conditions (SOC), Grade 3 [1]: 0 n (%)
General disorders and administration site conditions (SOC), Grade 4 [1]: 0 n (%)
Gingivitis, Grade 1 [1]: 1 (16.7) n (%)
Gingivitis, Grade 2 [1]: 0 n (%)
Gingivitis, Grade 3 [1]: 0 n (%)
Gingivitis, Grade 4 [1]: 0 n (%)
Headache, Grade 1 [1]: 1 (16.7) n (%)
Headache, Grade 2 [1]: 0 n (%)
Headache, Grade 3 [1]: 0 n (%)
Headache, Grade 4 [1]: 0 n (%)
Hyperuricemia, Grade 1 [1]: 1 (16.7) n (%)
Hyperuricemia, Grade 2 [1]: 0 n (%)
Hyperuricemia, Grade 3 [1]: 0 n (%)
Hyperuricemia, Grade 4 [1]: 0 n (%)
Hypocalcemia, Grade 1 [1]: 0 n (%)
Hypocalcemia, Grade 2 [1]: 1 (16.7) n (%)
Hypocalcemia, Grade 3 [1]: 0 n (%)
Hypocalcemia, Grade 4 [1]: 0 n (%)
Immune system disorders (SOC), Grade 1 [1]: 1 (16.7) n (%)
Immune system disorders (SOC), Grade 2 [1]: 0 n (%)
Immune system disorders (SOC), Grade 3 [1]: 0 n (%)
Immune system disorders (SOC), Grade 4 [1]: 0 n (%)
Infections and infestations (SOC), Grade 1 [1]: 2 (33.3) n (%)
Infections and infestations (SOC), Grade 2 [1]: 1 (16.7) n (%)
Infections and infestations (SOC), Grade 3 [1]: 0 n (%)
Infections and infestations (SOC), Grade 4 [1]: 0 n (%)
Investigations (SOC), Grade 1 [1]: 1 (16.7) n (%)
Investigations (SOC), Grade 2 [1]: 4 (66.7) n (%)
Investigations (SOC), Grade 3 [1]: 0 n (%)
Investigations (SOC), Grade 4 [1]: 0 n (%)
Leukopenia, Grade 1 [1]: 0 n (%)
Leukopenia, Grade 2 [1]: 2 (33.3) n (%)
Leukopenia, Grade 3 [1]: 0 n (%)
Leukopenia, Grade 4 [1]: 0 n (%)
Lymphopenia, Grade 1 [1]: 0 n (%)
Lymphopenia, Grade 2 [1]: 1 (16.7) n (%)
Lymphopenia, Grade 3 [1]: 2 (33.3) n (%)
Lymphopenia, Grade 4 [1]: 0 n (%)
Malaise, Grade 1 [1]: 4 (66.7) n (%)
Malaise, Grade 2 [1]: 0 n (%)
Malaise, Grade 3 [1]: 0 n (%)
Malaise, Grade 4 [1]: 0 n (%)
Metabolism and nutrition disorders (SOC), Grade 1 [1]: 3 (50.0) n (%)
Metabolism and nutrition disorders (SOC), Grade 2 [1]: 2 (33.3) n (%)
Metabolism and nutrition disorders (SOC), Grade 3 [1]: 0 n (%)
Metabolism and nutrition disorders (SOC), Grade 4 [1]: 0 n (%)
Musculoskeletal and connective tissue disorders (SOC), Grade 1 [1]: 1 (16.7) n (%)
Musculoskeletal and connective tissue disorders (SOC), Grade 2 [1]: 0 n (%)
Musculoskeletal and connective tissue disorders (SOC), Grade 3 [1]: 0 n (%)
Musculoskeletal and connective tissue disorders (SOC), Grade 4 [1]: 0 n (%)
Musculoskeletal pain, Grade 1 [1]: 1 (16.7) n (%)
Musculoskeletal pain, Grade 2 [1]: 0 n (%)
Musculoskeletal pain, Grade 3 [1]: 0 n (%)
Musculoskeletal pain, Grade 4 [1]: 0 n (%)
Nasopharyngitis, Grade 1 [1]: 2 (33.3) n (%)
Nasopharyngitis, Grade 2 [1]: 0 n (%)
Nasopharyngitis, Grade 3 [1]: 0 n (%)
Nasopharyngitis, Grade 4 [1]: 0 n (%)
Nausea, Grade 1 [1]: 3 (50.0) n (%)
Nausea, Grade 2 [1]: 0 n (%)
Nausea, Grade 3 [1]: 0 n (%)
Nausea, Grade 4 [1]: 0 n (%)
Nervous system disorders (SOC), Grade 1 [1]: 3 (50.0) n (%)
Nervous system disorders (SOC), Grade 2 [1]: 1 (16.7) n (%)
Nervous system disorders (SOC), Grade 3 [1]: 0 n (%)
Nervous system disorders (SOC), Grade 4 [1]: 0 n (%)
Decreased appetite, frequency (all grades) (TEAE, n = 6): 66.7%
Diarrhea, frequency (all grades) (TEAE, n = 6): 83.3%
Leukopenia, frequency (all grades) (TEAE, n = 6): 33.3%
Lymphopenia, frequency (all grades) (TEAE, n = 6): 50%
Malaise, frequency (all grades) (TEAE, n = 6): 66.7%
Nausea, frequency (all grades) (TEAE, n = 6): 50%
Thrombocytopenia, frequency (all grades) (TEAE, n = 6): 33.3%
Lymphocyte, erythrocyte, and leukocyte counts (after each treatment, n = 6): gradually decreased
Abdominal distension, frequency (all grades) (in vivo): 50%
Alopecia, frequency (all grades) (in vivo): 50%
Blood creatinine level increased, frequency (in vivo): 16.7%
Severe infections (in vivo): no severe infections
Severe lymphopenia during the follow-up period, frequency (in vivo): 16.7%
Secondary hematological malignant diseases (n = 6): no secondary hematological malignant diseases
Severe (grade ≥ 3) adverse events associated with non-hematological toxicities (n = 6): no severe (grade ≥ 3) adverse events

— article PMC8557155 (Annals of Nuclear Medicine, 2021)
